B1: T86: Tat protein T86; full length tat protein is 86-101 aa (protein, UniProt P04608 1-86, looked up)
Protein Tat: MEPVDPRLEPWKHPGSQPKTACTNCYCKKCCFHCQVCFITKALGISYGRKKRRQRRRAHQNSQTHQASLSKQPTSQPRGDPTGPKE
B2: T72: full length exon 1 Tat [1-72 aa], contains all domains essential for trans-activation (protein, UniProt P04608 1-72, looked up, fragment)
chain: MEPVDPRLEPWKHPGSQPKTACTNCYCKKCCFHCQVCFITKALGISYGRKKRRQRRRAHQNSQTHQASLSKQ
B3: T66 (protein)
chain: MEPVDPRLEPWKHPGSQPKTACTNCYCKKCCFHCQVCFMTKALGISYGRKKRRQRRRAHQNSQTHQ
modifications: Human immunodeficiency virus 1

Key:
HIV LTR [1] = assay: HIV LTR transactivation by Tat C-terminal deletion mutants (triple plasmid transfection, Dual-Glo luciferase); type: cell-based; settings: HEK293 cells, 24 h post transfection, full length Tat72 exon-1 set to 100%, mean (standard deviation)
Experimental: Activity is expressed in % with respect to the activity achieved by full length Tat72 exon-1 set to 100%. Shown data are mean values [n 4] with indicated (standard deviation).
Tat-mediated transactivation was determined by triple plasmid transfection of HEK293 cells with pEF-T, a Tat expression plasmid, LTR-FLuc, a HIV LTR-controlled firefly luciferase reporter plasmid and pEF1-RLuc, a EF1α promoter driven Renilla luciferase reporter plasmid. Luciferase reporter activities were assessed 24 h post transfection using the Dual-Glo luciferase assay [Promega]. The measured HIV LTR luciferase data were normalized by Renilla luciferase data retrieved from the pEF1-RLuc plasmid. LTR activity is expressed as percentage of wild type exon-1 Tat72 activity.

MT4-LTR-GFP cells = assay: Titration of tat protein variants on latent HIV LTR-GFP reporter cell line (flow cytometry); type: cell-based; set-up: unit not given here; settings: overnight
Experimental: MT4-LTR-GFP cells were incubated overnight with different Tat variants at the indicated concentration [μg/ml]. LTR activation was determined by flow cytometry.

latent HIV = assay: Ex vivo activation of latent HIV from primary CD4+ T cells of HIV-infected individuals (gag RNA QPCR); type: cell-based, HIV-1; settings: for % Activity (PHA): PHA set to 100%; for % Activity (PMA): PMA set to 100%
Experimental: Activation of latent HIV from primary CD4^+ T cells by overnight incubation with different Tat proteins. Indicated numbers represent HIV activation in percentage to reference compounds PMA and PHA set to 100%. The shown % increase compared to PMA/PHA is statistically significant (p<0.01).
CD4^+ T cells were isolated from 200 ml whole blood using CD4 microbeads (Miltenyi Biotec) according to manufacturer's protocol. Blood originates from HIV-infected individuals under long-term HAART with undetectable plasma virus. Ten to twenty replicates of cell pools plated at 1×10^6 CD4^+ T cells/well were incubated overnight with compounds or mock controls (DMSO/PBS). Total RNA was isolated from each replicate using the Magmax 96 Total RNA isolation kit (Ambion) following the manufacturer's protocol. Duplicate cDNA reactions were performed on each RNA replicate using SuperScript III First-Strand Synthesis kit (Invitrogen) according to the manufacturer's protocol. Quantitative real-time PCR (QPCR) was conducted on each cDNA applying gag-specific primers and the nucleic acid detection dye Sybr Green I [Invitrogen]. Standard curves were generated using cDNA synthesized from in vitro transcribed RNA. The detection limit of the QPCR assay was determined to be within 1-10 copies/reaction. Cycle threshold (ct) values 40 were excluded from the analysis. The Wilcoxon rank sum test was used to calculate the statistical significance of the relative HIV-1 gag RNA copy number between different conditions.

HIV LTR [2] = assay: HIV LTR activation by T66 fusion proteins (triple plasmid transfection of HEK293 cells, Dual-Glo luciferase); type: cell-based
Experimental: Triple plasmid transfection of HEK293 cells with pEF-T (Tat expression plasmid), LTR-FLuc (HIV LTR-controlled firefly luciferase reporter plasmid) and pEF1-RLuc (EF1α promoter driven Renilla luciferase reporter plasmid). Luciferase reporter activities were assessed 24 h post transfection using the Dual-Glo luciferase assay [Promega]. The measured HIV LTR luciferase data were normalized by Renilla luciferase data collected from the co-transfected pEF1-RLuc signal. LTR activation is either expressed as fold increase over cell control or as percentage of T66 activity.

| Molecule | % Tat72 activity (HIV LTR [1]) | LTR activation (MT4-LTR-GFP cells; Tat 30 μg/ml) | LTR activation (MT4-LTR-GFP cells; Tat 40 μg/ml) | LTR activation (MT4-LTR-GFP cells; Tat 50 μg/ml) | LTR activation (MT4-LTR-GFP cells; Tat 60 μg/ml) | LTR activation (MT4-LTR-GFP cells; Tat 70 μg/ml) | LTR activation (MT4-LTR-GFP cells; Tat 80 μg/ml) | LTR activation (MT4-LTR-GFP cells; Tat 100 μg/ml) | % Activity (PHA) (latent HIV; Donor 1, overnight incubation) [%] | % Activity (PMA) (latent HIV; Donor 1, overnight incubation) [%] | % Activity (PHA) (latent HIV; Donor 3, overnight incubation) [%] | % Activity (PMA) (latent HIV; Donor 3, overnight incubation) [%] | % Activity (PHA) (latent HIV; Donor 5, overnight incubation) | % Activity (PHA) (latent HIV; Donor 4, overnight incubation) | further results |
| --- | --- | --- | --- | --- | --- | --- | --- | --- | --- | --- | --- | --- | --- | --- | --- |
| 1-57: first 57 N-terminal amino acids of wild-type tat, SEQ ID No 1; minimal reactivation domain (MEPVDPRLEPWKHPGSQPKTACTNCYCKKCCFHCQVCFMTKALGISYGRKKRRQRRR; Human immunodeficiency virus 1) [Tat 1-57] | 40.2 (±2.3) % | – | – | – | – | – | – | – | – | – | – | – | – | – | – |
| T60: first 60 N-terminal amino acids of wild-type tat, SEQ ID No 2 (MEPVDPRLEPWKHPGSQPKTACTNCYCKKCCFHCQVCFMTKALGISYGRKKRRQRRRAHQ; Human immunodeficiency virus 1) [Tat T60] | 77.2 (±10.8) % | 28.5 | 33.4 | 87.0 | 92.1 | 95.2 | 95.8 | 93.3 | 328 | 405 | 196 | 213 | ND/254% | – | – |
| B1 | – | – | – | – | – | – | – | – | – | – | – | – | ND/408% | ND/436% | – |
| B2 | – | 18.6 | 47.2 | 60.4 | 76.3 | 88.8 | 93.8 | 93.7 | – | – | – | – | – | – | – |
| B3 | 92.2 (±12.7) % | 45.7 | 53.8 | 87.0 | 88.7 | 87.6 | 93.9 | 94.5 | 680 | 838 | 487 | 530 | ND/636% | ND/479% | % Activity (PHA) (latent HIV; Donor 2, overnight incubation): 986%; HIV activation ex vivo compared with reference compounds (latent HIV; patient-derived latently infected CD4 cells, versus PHA, PMA and SAHA): exceeded by far the reactivation achieved by reference compounds; RLUC (HIV LTR [2]; EF1α promoter driven Renilla luciferase (normalisation signal), HEK293, 24 h post transfection): 267; FLUC (HIV LTR [2]; HIV LTR-controlled firefly luciferase, HEK293, 24 h post transfection): 15437; FLUCnorm (HIV LTR [2]; firefly luciferase normalized by Renilla luciferase): 37049; Fold (HIV LTR [2]; fold increase over cell control): 26; % T66 (HIV LTR [2]; percentage of T66 activity): 100% |

Reference: patent US11098085B2, “Use of a HIV derived accessory protein for the reactivation of latent HIV” (Janssen Sciences Ireland Unlimited Company, priority 2014, dated 2021)
